From the DeepSol protein solubility set

Test: soluble on expression in E. coli; label from the status in PepcDB or PDB records

Sequence | soluble on expression in E. coli
MRIEQELKLGFKDVLFRPKRSTLKSRSQVNLTREFTFKHSGRQWSGVPVIAANMDSVGSFAMAKALAEHGVMTAVHKHYTVADWAEFVKSADKATLNNVMVSTGTSEADFQKTKDVMALSDELIFICIDIANGYSEHLVEYVQRVRAAFPDKVISAGNVVTGDMVEELILAGADIVKVGIGPGSVCTTRVKTGVGYPQLSAIIECADAAHGLGGRIIGDGGCTCPGDVAKAFGGGADFVMLGGMLAGHEEAGGELIVKDGETFMKFYGMSSKSAMDKHSGGVAGYRAAEGKTVLLPYRGSVHGTIQDILGGVRSTCTYVGAAELRELTKRTTFIRVQEQENNVYGRE | soluble
MRIGHGFDVHKFGENGSGPLIIGGVRIPYEKGLLAHSDGDVALHAATDALLGAAALGDIGKLFPDTDPAFKGADSRGLLREAYRRILAKGYKLGNLDITIIAQAPKMAPHIPQMRVNLAEDLQCHMDDINVKATTTEQLGFTGRGEGIACEAVVLLVNVEQG | not soluble
MRILEKNHGKSRVRFNCTHPIKPAAWVLAANVSLLGCAYAATDENNSQKKERENNPANTTITVTASPLRHAGVTEDSGSYNTSSMSTATGLNISARETPQSVSVLTKQRMRDQNLNSVESAVNNITGISVRQFDSDRFGFTSRGMAVNNVMRDGVATFYDTRFNYGDNTLDTDMFDRIEVVRGAAGLMAGPGNPSAVINLVRKRPTQDFRGSVSAGVGSWEKWRTALDISGPLNSEGSVRGRFVTAYEDKNSFVNRYDQSKNPFYGILEIDVTPNTLFTFGADTQRTLTRGGMFGGLPLFNSAGGRTNYAQSATTASDWASAETRTQTLFSSLQHNFDNGWNIKGTFTFDNDKLRQDVMWPTGYPDPQTNIGMRPGSLSLIDGARRQQNYDIQVNGQYSLFGRQHQLGLGWNRQRQNIDNDYYLATCNATRTCPDLGDFTQPGWQYPKPVWSDKRAYGSKGRSDQSSQYVVTQLSLIDPLTLILGGRLTTWETRGDNFGTPQNARYKNEFVPYSGLTYDINRDLSVYTSYTEIFNPENRRDRNNTLLAPVSGQNYEAGLKGVAFDNSLDYSLAVFEIRQNNMPVPDTTAPRLPDNSQPYFAVDGTKTRGFEAEVSGKMTEDWNISAGYTQYNVKLPSSNTQTPVTPVTPRKVLKLFTTYTLPGQLSDLTLGGGVNWQSQIARNLSSPIGIQQIGQGSFAIYSLMSRYQFTPQLSLTVNLDNLFNQHYYTQIGQYNQYLLGAPRNVDATVRYTF | not soluble
MRINFEKANSNHINIIFSWLKEPFIQEFWDNTQAHKDDILNFINGRTEPSSYADGKYVYWIASGNGHPFAMLMTIQETSEDEIDDIKLINLSKTGHSYGIDYMIGDKNYFGIGYGARTLIEFIDFFIKEVDPKADTFLIDPASDNPRAKHVYIKAGF | soluble
MRIQVNAKGAARLLSRHLWVFRRDVVSGPETPGLYPVYWGRRFLALALYNPHTDLAVRAYRFAPAEDPVAALLENLAQALARREAVLRQDPEGGYRLVHAEGDLLPGLVVDYYAGHAVVQATAHAWEGLLPQVAEALRPHVQSVLAKNDARTRELEGLPLYVRPLLGEVPERVQVQEGRVRYLVDLRAGQKTGAYLDQRENRLYMERFRGERALDVFSYAGGFALHLALGFREVVAVDSSAEALRRAEENARLNGLGNVRVLEANAFDLLRRLEKEGERFDLVVLDPPAFAKGKKDVERAYRAYKEVNLRAIKLLKEGGILATASCSHHMTEPLFYAMVAEAAQDAHRLLRVVEKRGQPFDHPVLLNHPETHYLKFAVFQVL | soluble
MRKLAAFLGLVGLLSLGLAQSAQEILDRVEKNLSTPWQATVQGRIQGPGGEEELLARVYALPQARLFRVEFLKPGSLEGNFTVITEKEVWNYLYLTNQLVISPREKAKIQGLGFAPQGLGDLKALSEQVDLRLEGEVRLPEGMAWKLVGRSKENQGFAAMELYILKADPRPLRFVFLDEKGKVLADLKVVEFKRTNLTEAQLKRYPKDAQVVRR | soluble
MRKLISTIIVSTLLIGGCSTVHKEAKHSSQSIPEEVPASQYKGQGFQPVAEKSAIAHAKKYREEYEKLGEQFFKDNFSLNVKATNVVGSGDGVEVYVHCDDHDIVFNASIPFDKEAIHEEGSMRSNDNGDTMSNMVGTVLSGFEYKAQKEKYDNLTKFFKDNEEKYQYTGFTKEAIHKTQNVGYQNEYYYLAGNVTNINNYRKYYEPLIKKDSKNFKEGMKKANEATNFKAKIEVVSTLFSTKSDFTKNNSKKDLLFLSDDLYHYKEKPENTNITLQLSEPKINSTRAFYDANNPLEYGVHKHELEHHHHHH | soluble
MRKSKRERQRLLQETIRENPFITDEELAEKFSVSVQTIRLDRLELSIPELRERIKNVARQSFADKVRALPLEEVIGDIIDIEPDASAISIFDVKEEHVFRRTRIARGHHLFAQANSLAVAVIHDELALTAKATIRFVRQVKEGERVVAKAKVTGKTAHGRTIVEVNSYVGQELVFSGTFEMYRSNIEKKDGDSNEYRG | not soluble
MRKSRLSQHKQNKLIELFVAGVTARTASKLVNVNKNTATITFIDYAYSFIKQAHIWKCLKAKLKPMKAISAVLEKANVVAVLQGKSQYSGFSNEMQGLYRRCS | not soluble
MRLEECRKRLEELEAAREELLKVLREMRIHSTKSIALIHAGKVEEAEQELKKAIELLEKVKAYREYPEIYFYLCNDAMQELVEAIAFKNAISGEFTFEIDLEVTPAAFLNGFADAVGELRRYALTKLIEGDFKSAERMLEVMEKIYERLMEFTTFPDKLVSGLRKKLDVARGGIERTKSDYIAAKVARLNESLGGN | not soluble
MRLEIAEKYMAEAYEYLKKGDTIQASGKAYKVAEEIVKAIKFLISKLIGQDVGVISPYRTQVRKLDQELANYKPYVEVNTVDAFQGREKDVIIFSVTATNGLRFVTNRRRLNVAFTRPRYKLIVLGNENSIMSCQMTIC | soluble
MRLFAINAGNFKLDGGAMFGVVPKSIWNKLNPADSNNLCTWATRCLLIENGKQLVLIDTGLGDKQDESFFRHYYRDTPQTWDTLLKPYGFHSSDITDVVLTHLHFDHVGGALEKKGDKIVPTFSNARYWSNTRHWDWAVEPNPREKASFLKDNLFPLQESGQLYFVDTQNLPFEWMDFIFVDGHTEQQMLPLITTPAEKKILYAADLLPSAGHIPMPYIMSYDVRPLVSMQEKERVFNQVLAEDWTVFLEHDLSNACISLQQTEKGIRLNNVFQISDFNLEHHHHHH | not soluble
MRLIEQAIEKIESGQVTEGLTALEEAAKTANHEMKYTVAETYYELGHLDKAQAIIDELLMLYPDEGGLYTFAAEILIDLNKEDEAIEMLNEIKEQDPAFLQAQLLLADLYQLQSLDEVAEQKLLKAYEVAPDEPIISFGLGEFYLERGDYIKSIPHLKRAKHGGLTNDQVNVSLKLAEAYSGSGQFEEALPHYDEGLKQKLDPHGLFGYGYTAYLLGDYVLAIEQFQALKALDPDFYDPIPVFGEGFRRGKSFRGSNGCFKRGDDRGLEHHHHHH | soluble
MRLPIFLLALSSASIVFSLDPVPEEYANVPKEFFEKFQAAIKSGDPVAVVDLFAPDDMLPVSGMIEAAQGIIKSFESYPTGIIERVRYEYGVIQINVRYYPNTPLLSKKTTIFKIKYENKWKGWTMVHFSDWM | not soluble
MRLSDAEILHELRHTPLKELGERAYEVKKRLHPKRITTFVVDRNINYTNICWVDCKFCAFKRKLSQEETYILSFEEIDRKIEELIAIGGTQILFQGGVHPELKIEWYENLVSHIAQKFPEITIHGFSAIEVDYIARLSKLSLKETLQRLQAAGLSSIPGAGAEILSDRVRDIIAPKKLSADRWIEVHRTAHQIGMKSTATMMFGTIEEEEDIIEHWRRIRELQEETGGFRAFILWSFQPHHTPLKAEFPHLQKSSSNRYLRLLAASRLYLDNFPNLQSSWVTQGSYIGQMALLFGANDLGSTMMEENVVSAAGARNQMNQEEMIALIKDVGELPAKRNTAYEILERY | not soluble
MRLYMEMTNAQRLILSNQYFLMSQLDPNNANKYKRLQTIVERGYELHMRELNREFGCLPETECREIIDIMEMYHAMQESNRMLDDAARKDVDQRRLTFLGFDMATEAQLVNYVRFLVDSEGLYPQFDKGEHHFNSQMPMLAKYRRMLTTWRNCPRQYHLSGNELRQIMNA | not soluble
MRNAHAVEAMRVPHPVRGTVSLVEWHMARARNHINVLEENMTLLMEQAHANESLFYRLLHLQSRLVAADSLDEMLVRFHRWARDLGLAGATLRLFPDRWRLGAPSRYTHLALNRQAFEPLRIQRLGQSQHYLGPLNGPELLVVLEHHHHHH | soluble
MRNFTRTLEPEGITEMPQEGLRFVVQHHLARRDHYDLRLEWDGAMLSWAVPKGPSYNTWDKRLAVQVEDHPLEYRHFEGTIPKGEYGGGVVMLWDEGFWEPYVDVDGGLHEGMLKFVLKGRRLKGRWALVRMKGKAGDKKDNWLLLKEKDDYVQTADGISQFTTSLEHHHHHH | soluble
MRNRTLADLDRVVALGGGHGLGRVLSSLSSLGSRLTGIVTTTDNGGSTGRIRRSEGGIAWGDMRNCLNQLITEPSVASAMFEYRFGGNGELSGHNLGNLMLKALDHLSVRPLEAINLIRNLLKVDTHLIPMSEHPVDLMAIDDQGHEVYGEVNIDQLTTPIQELLLTPNVPATREAVHAINEADLIIIGPGSFYTSLMPILLLKEIAQALRRTPAPMVYIGNLGRELSLPAANLKLESKLAIMEQYVGKKVIDAVIVGPKVDVSAVKERIVIQEVLEASDIPYRHDRQLLHNALEKALQALGLEHHHHHH | not soluble
MRNVFCIGELLIDFVCRNTNVSLVNGSNFEKKAGGAPANVAAAITKLGGHATFMGQVGNDPFGEFLEQTLQHAHVDTSMLIKDKQTTLAFVSIDQNGERDFTFMRGADGEYHFNSIDLSKIKTNDLIHFGSATALLSSPLKDTYFQLLQHARESGQFISFDPNYRNALITNTEQFIQDCLTFIKHAHFVKVSQEEAIMLSKESDLQQSALKLLNHGAKAVAITLGKDGTLLATKDKQTIVPSISIQQVDTTGAGDAFVGAMLYQIAKSEQMFLHNFEGLTTFISFANKVGALTCTNYGAISSLPSLTDVKAYE | not soluble
MRPKKDGLEDFLRLTPEIKKQLGSLVSDYCNVLNKEFTAGSVEITLRSYKICKAFINEAKAHGREWGGLMATLNICNFWAILRNNRVRRRAENAGNDACSIACPIVMRYVLDHLIVVTDRFFIQAPSNRVMIPATIGTAMYKLLKHSRVRAYTYSKVLGVDRAAIMASGKQVVEHLNRMEKEGLLSSKFKAFCKWVFTYPVLEEMFQTMVSSKTGHLTDDVKDVRALIKTLPRASYSSHAGQRSYVSGVLPACLLSTKSKAVETPILVSGADRMDEELMGNDGGASHTEARYSESGQFHAFTDELESLPSPTMPLKPGAQSADCGDSSSSSSDSGNSDTEQSEREEARAEAPRLRAPKSRRTSRPNRGQTPCPSNAAEPEQPWIAAVHQESDERPIFPHPSKPTFLPPVKRKKGLRDSREGMFLPKPEAGSAISDVFEGREVCQPKRIRPFHPPGSPWANRPLPASLAPTPTGPVHEPVGSLTPAPVPQPLDPAPAVTPEASHLLEDPDEETSQAVKALREMADTVIPQKEEAAICGQMDLSHPPPRGHLDELTTTLESMTEDLNLDSPLTPELNEILDTFLNDECLLHAMHISTGLSIFDTSLF | not soluble
